Experimental findings from the supplement of paper PMC5998384 are described below.

Data set [1] deals with HeLa Kyoto. Put plainly: solubility change mitosis vs G1/S (difference of NP-40 vs SDS log2 ratios) (log2 ratio difference); higher = more soluble in mitosis.
For data set [2], the system named is HeLa Kyoto. In words: thermal stability score vs G1/S (z-score of summed log2 fold changes over temperatures); higher = more thermally stable than in G1/S.
The test system of data set [3] is HeLa Kyoto. In words: melting temperature (median over replicates), in situ; higher = more thermally stable.
The subject of data set [4] is HeLa Kyoto. In words: solubility in G1/S (NP-40 vs SDS abundance) (log2 ratio); higher = more soluble. As to conditions: cell cycle stage: G1/S.
[5] abbreviates: cell cycle stage: early G1 (4.5 h after nocodazole release).
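Wherever melting temperature (median over replicates), in situ is given: HeLa Kyoto cells synchronized by double thymidine or nocodazole block, proteins quantified by TMT10plex mass spectrometry, three independent biological replicates.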
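Wherever solubility change mitosis vs G1/S (difference of NP-40 vs SDS log2 ratios) is given: synchronized HeLa Kyoto cells (double thymidine block for G1/S, nocodazole release for mitosis), protein amounts in NP-40 versus SDS lysates quantified by mass spectrometry, three biological replicates.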
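Wherever solubility in G1/S (NP-40 vs SDS abundance) is given: HeLa Kyoto cells arrested at G1/S by double thymidine block, proteins quantified by TMT10plex mass spectrometry in mild NP-40 versus SDS extracts, three biological replicates.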
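Wherever thermal stability score vs G1/S (z-score of summed log2 fold changes over temperatures) is given: synchronized HeLa Kyoto cells, proteins quantified by TMT10plex mass spectrometry, three biological replicates, mitosis taken 0.5 h after nocodazole release, G1/S directly after double thymidine block.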

With “MGRESRHYRKRSASRGRSGSRSRSRSPSDKRSKRGDDRRSRSRDRDRRRERSRSRDKRRSRSRDRKRLRRSRSRERDRSRERRRSRSRDRRRSRSRSRGRRSRSSSPGNKSKKTENRSRSKEKTDGGESSKEKKKDKDDKEDEKEKDAGNFDQNKLEEEMRKRKERVEKWREEQRKKAMENIGELKKEIEEMKQGKKWSLEDDDDDEDDPAEAEKEGNEMEGEELDPLDAYMEEVKEEVKKFNMRSVKGGGGNEKKSGPTVTKVVTVVTTKKAVVDSDKKKGELMENDQDAMEYSSEEEEVDLQTALTGYQTKQRKLLEPVDHGKIEYEPFRKNFYVEVPELAKMSQEEVNVFRLEMEGITVKGKGCPKPIKSWVQCGISMKILNSLKKHGYEKPTPIQTQAIPAIMSGRDLIGIAKTGSGKTIAFLLPMFRHIMDQRSLEEGEGPIAVIMTPTRELALQITKECKKFSKTLGLRVVCVYGGTGISEQIAELKRGAEIIVCTPGRMIDMLAANSGRVTNLRRVTYVVLDEADRMFDMGFEPQVMRIVDNVRPDRQTVMFSATFPRAMEALARRILSKPIEVQVGGRSVVCSDVEQQVIVIEEEKKFLKLLELLGHYQESGSVIIFVDKQEHADGLLKDLMRASYPCMSLHGGIDQYDRDSIINDFKNGTCKLLVATSVAARGLDVKHLILVVNYSCPNHYEDYVHRAGRTGRAGNKGYAYTFITEDQARYAGDIIKALELSGTAVPPDLEKLWSDFKDQQKAEGKIIKKSSGFSGKGFKFDETEQALANERKKLQKAALGLQDSDDEDAAVDIDEQIESMFNSKKRVKDMAAPGTSSVPAPTAGNAEKLEIAKRLALRINAQKNLGIESQDVMQQATNAILRGGTILAPTVSAKTIAEQLAEKINAKLNYVPLEKQEEERQDGGQNESFKRYEEELEINDFPQTARWKVTSKEALQRISEYSEAAITIRGTYFPPGKEPKEGERKIYLAIESANELAVQKAKAEITRLIKEELIRLQNSYQPTNKGRYKVL [DDX46]”, the “solubility change mitosis (log2)” value in the data set on HeLa Kyoto [1] was -0.00451. In addition, the values for the thermal stability score in the data set on HeLa Kyoto [2] (setting [5]) and in the data set with HeLa Kyoto [2] (cell cycle stage: mitosis) were 3.63 and 9.43, respectively. Besides, the melting temperature amounted to 47.7 °C in the data set with HeLa Kyoto [3] (cell cycle stage: G1/S) and 49.2 °C in the data set on HeLa Kyoto [3] (cell cycle stage: mitosis). Besides, the “solubility in G1/S (log2)” value in the data set with HeLa Kyoto [4] is -0.607.

With “MGRIFLDHIGGTRLFSCANCDTILTNRSELISTRFTGATGRAFLFNKVVNLQYSEVQDRVMLTGRHMVRDVSCKNCNSKLGWIYEFATEDSQRYKEGRVILERALVRESEGFEEHVPSDNS [YPEL5]”, the “solubility change mitosis (log2)” value with HeLa Kyoto [1] is -0.00616. For the same sequence, the values for the thermal stability score in the data set with HeLa Kyoto [2] (setting [5]) and in the data set with HeLa Kyoto [2] (cell cycle stage: mitosis) were 0.121 and -0.0508, respectively. The melting temperature came out at 50.7 °C in the data set on HeLa Kyoto [3] (cell cycle stage: G1/S) and 52.5 °C with HeLa Kyoto [3] (cell cycle stage: mitosis). Also, in the data set on HeLa Kyoto [4], the “solubility in G1/S (log2)” value is 0.00475.

For “MGRSGKLPSGVSAKLKRWKKGHSSDSNPAICRHRQAARSRFFSRPSGRSDLTVDAVKLHNELQSGSLRLGKSEAPETPMEEEAELVLTEKSSGTFLSGLSDCTNVTFSKVQRFWESNSAAHKEICAVLAAVTEVIRSQGGKETETEYFAALMTTMEAVESPESLAAVAYLLNLVLKRVPSPVLIKKFSDTSKAFMDIMSAQASSGSTSVLRWVLSCLATLLRKQDLEAWGYPVTLQVYHGLLSFTVHPKPKIRKAAQHGVCSVLKGSEFMFEKAPAHHPAAISTAKFCIQEIEKSGGSKEATTTLHMLTLLKDLLPCFPEGLVKSCSETLLRVMTLSHVLVTACAMQAFHSLFHARPGLSTLSAELNAQIITALYDYVPSENDLQPLLAWLKVMEKAHINLVRLQWDLGLGHLPRFFGTAVTCLLSPHSQVLTAATQSLKEILKECVAPHMADIGSVTSSASGPAQSVAKMFRAVEEGLTYKFHAAWSSVLQLLCVFFEACGRQAHPVMRKCLQSLCDLRLSPHFPHTAALDQAVGAAVTSMGPEVVLQAVPLEIDGSEETLDFPRSWLLPVIRDHVQETRLGFFTTYFLPLANTLKSKAMDLAQAGSTVESKIYDTLQWQMWTLLPGFCTRPTDVAISFKGLARTLGMAISERPDLRVTVCQALRTLITKGCQAEADRAEVSRFAKNFLPILFNLYGQPVAAGDTPAPRRAVLETIRTYLTITDTQLVNSLLEKASEKVLDPASSDFTRLSVLDLVVALAPCADEAAISKLYSTIRPYLESKAHGVQKKAYRVLEEVCASPQGPGALFVQSHLEDLKKTLLDSLRSTSSPAKRPRLKCLLHIVRKLSAEHKEFITALIPEVILCTKEVSVGARKNAFALLVEMGHAFLRFGSNQEEALQCYLVLIYPGLVGAVTMVSCSILALTHLLFEFKGLMGTSTVEQLLENVCLLLASRTRDVVKSALGFIKVAVTVMDVAHLAKHVQLVMEAIGKLSDDMRRHFRMKLRNLFTKFIRKFGFELVKRLLPEEYHRVLVNIRKAEARAKRHRALSQAAVEEEEEEEEEEEPAQGKGDSIEEILADSEDEEDNEEEERSRGKEQRKLARQRSRAWLKEGGGDEPLNFLDPKVAQRVLATQPGPGRGRKKDHGFKVSADGRLIIREEADGNKMEEEEGAKGEDEEMADPMEDVIIRNKKHQKLKHQKEAEEEELEIPPQYQAGGSGIHRPVAKKAMPGAEYKAKKAKGDVKKKGRPDPYAYIPLNRSKLNRRKKMKLQGQFKGLVKAARRGSQVGHKNRRKDRRP [RRP12]”, the “solubility change mitosis (log2)” value with HeLa Kyoto [1] was determined as 0.248. Further, the thermal stability score is 3.24 in the data set on HeLa Kyoto [2] (setting [5]) and 7.79 in the data set on HeLa Kyoto [2] (cell cycle stage: mitosis). Further, the melting temperature with HeLa Kyoto [3] (cell cycle stage: G1/S) is 46.3 °C; in the data set on HeLa Kyoto [3] (cell cycle stage: mitosis) it was 49 °C. Besides, the “solubility in G1/S (log2)” value with HeLa Kyoto [4] was -0.758.

On to “MGRVQLFEISLSHGRVVYSPGEPLAGTVRVRLGAPLPFRAIRVTCIGSCGVSNKANDTAWVVEEGYFNSSLSLADKGSLPAGEHSFPFQFLLPATAPTSFEGPFGKIVHQVRAAIHTPRFSKDHKCSLVFYILSPLNLNSIPDIEQPNVASATKKFSYKLVKTGSVVLTASTDLRGYVVGQALQLHADVENQSGKDTSPVVASLLQKVSYKAKRWIHDVRTIAEVEGAGVKAWRRAQWHEQILVPALPQSALPGCSLIHIDYYLQVSLKAPEATVTLPVFIGNIAVNHAPVSPRPGLGLPPGAPPLVVPSAPPQEEAEAEAAAGGPHFLDPVFLSTKSHSQRQPLLATLSSVPGAPEPCPQDGSPASHPLHPPLCISTGATVPYFAEGSGGPVPTTSTLILPPEYSSWGYPYEAPPSYEQSCGGVEPSLTPES [ARRDC1]”, for which the “solubility change mitosis (log2)” value in the data set with HeLa Kyoto [1] was -0.0855. The results for the thermal stability score with HeLa Kyoto [2] (setting [5]) and with HeLa Kyoto [2] (cell cycle stage: mitosis) were -1.09 and -1.63, respectively. Also, the melting temperature in the data set on HeLa Kyoto [3] (cell cycle stage: G1/S) is 53.2 °C; with HeLa Kyoto [3] (cell cycle stage: mitosis) it was 52.1 °C. In addition, in the data set on HeLa Kyoto [4], the “solubility in G1/S (log2)” value was determined as 0.131.

As for “MGSAGLSRLHGLFAVYKPPGLKWKHLRDTVELQLLKGLNARKPPAPKQRVRFLLGPMEGSEEKELTLTATSVPSFINHPLVCGPAFAHLKVGVGHRLDAQASGVLVLGVGHGCRLLTDMYNAHLTKDYTVRGLLGKATDDFREDGRLVEKTTYDHVTREKLDRILAVIQGSHQKALVMYSNLDLKTQEAYEMAVRGLIRPMNKSPMLITGIRCLYFAPPEFLLEVQCMHETQKELRKLVHEIGLELKTTAVCTQVRRTRDGFFTLDSALLRTQWDLTNIQDAIRAATPQVAAELEKSLSPGLDTKQLPSPGWSWDSQGPSSTLGLERGAGQ [TRUB2]”, the “solubility change mitosis (log2)” value in the data set with HeLa Kyoto [1] was found to be 0.16. Moreover, the thermal stability score was -0.241 in the data set on HeLa Kyoto [2] (setting [5]) and 0.385 with HeLa Kyoto [2] (cell cycle stage: mitosis). Moreover, the melting temperature with HeLa Kyoto [3] (cell cycle stage: G1/S) turned out to be 50.2 °C; with HeLa Kyoto [3] (cell cycle stage: mitosis) it was 50 °C. In addition, the “solubility in G1/S (log2)” value in the data set with HeLa Kyoto [4] is -0.103.

“MGSLFRSETMCLAQLFLQSGTAYECLSALGEKGLVQFRDLNQNVSSFQRKFVGEVKRCEELERILVYLVQEINRADIPLPEGEASPPAPPLKQVLEMQEQLQKLEVELREVTKNKEKLRKNLLELIEYTHMLRVTKTFVKRNVEFEPTYEEFPSLESDSLLDYSCMQRLGAKLGFVSGLINQGKVEAFEKMLWRVCKGYTIVSYAELDESLEDPETGEVIKWYVFLISFWGEQIGHKVKKICDCYHCHVYPYPNTAEERREIQEGLNTRIQDLYTVLHKTEDYLRQVLCKAAESVYSRVIQVKKMKAIYHMLNMCSFDVTNKCLIAEVWCPEADLQDLRRALEEGSRESGATIPSFMNIIPTKETPPTRIRTNKFTEGFQNIVDAYGVGSYREVNPALFTIITFPFLFAVMFGDFGHGFVMFLFALLLVLNENHPRLNQSQEIMRMFFNGRYILLLMGLFSVYTGLIYNDCFSKSVNLFGSGWNVSAMYSSSHPPAEHKKMVLWNDSVVRHNSILQLDPSIPGVFRGPYPLGIDPIWNLATNRLTFLNSFKMKMSVILGIIHMTFGVILGIFNHLHFRKKFNIYLVSIPELLFMLCIFGYLIFMIFYKWLVFSAETSRVAPSILIEFINMFLFPASKTSGLYTGQEYVQRVLLVVTALSVPVLFLGKPLFLLWLHNGRSCFGVNRSGYTLIRKDSEEEVSLLGSQDIEEGNHQVEDGCREMACEEFNFGEILMTQVIHSIEYCLGCISNTASYLRLWALSLAHAQLSDVLWAMLMRVGLRVDTTYGVLLLLPVIALFAVLTIFILLIMEGLSAFLHAIRLHWVEFQNKFYVGAGTKFVPFSFSLLSSKFNNDDSVA [ATP6V0A2]”: in the data set with HeLa Kyoto [1], the “solubility change mitosis (log2)” value was -0.0408. The thermal stability score is -2.85 with HeLa Kyoto [2] (setting [5]) and -3.91 in the data set with HeLa Kyoto [2] (cell cycle stage: mitosis). Also, the melting temperature with HeLa Kyoto [3] (cell cycle stage: G1/S) came to 55.8 °C; in the data set on HeLa Kyoto [3] (cell cycle stage: mitosis) it was 56.5 °C. For the same sequence, the “solubility in G1/S (log2)” value in the data set on HeLa Kyoto [4] is -0.303.
